Data taken from paper doi:10.1101/2022.06.26.497646.

Target: complex III dimer (CIII2, cytochrome bc1 complex) of Tetrahymena thermophila (Tetrahymena thermophila (endogenous))
Assay: cryo-EM structure

“complex III dimer (CIII2, cytochrome bc1 complex) of Tetrahymena thermophila” gave a stoichiometry N of 2.
